Test results: the supplement of paper PMC10065799, “High-throughput profiling of sequence recognition by tyrosine kinases and SH2 domains using bacterial peptide display” (eLife, 2023)

Assays:
FGFR1 = FGFR1 (UniProt P11362); experiment: phosphorylation enrichment, bacterial display (enrichment ratio); higher = better substrate or ligand; peptides without Tyr show the background
c-Abl (mouse) = experiment: as above
EPHB1 = EPHB1 (UniProt P54762); experiment: as above
Jak2 = Jak2 (UniProt O60674); experiment: as above
c-Src = experiment: as above
Fes = Fes (UniProt P07332); experiment: as above
Fes, sequence (P07332 whole entry, looked up): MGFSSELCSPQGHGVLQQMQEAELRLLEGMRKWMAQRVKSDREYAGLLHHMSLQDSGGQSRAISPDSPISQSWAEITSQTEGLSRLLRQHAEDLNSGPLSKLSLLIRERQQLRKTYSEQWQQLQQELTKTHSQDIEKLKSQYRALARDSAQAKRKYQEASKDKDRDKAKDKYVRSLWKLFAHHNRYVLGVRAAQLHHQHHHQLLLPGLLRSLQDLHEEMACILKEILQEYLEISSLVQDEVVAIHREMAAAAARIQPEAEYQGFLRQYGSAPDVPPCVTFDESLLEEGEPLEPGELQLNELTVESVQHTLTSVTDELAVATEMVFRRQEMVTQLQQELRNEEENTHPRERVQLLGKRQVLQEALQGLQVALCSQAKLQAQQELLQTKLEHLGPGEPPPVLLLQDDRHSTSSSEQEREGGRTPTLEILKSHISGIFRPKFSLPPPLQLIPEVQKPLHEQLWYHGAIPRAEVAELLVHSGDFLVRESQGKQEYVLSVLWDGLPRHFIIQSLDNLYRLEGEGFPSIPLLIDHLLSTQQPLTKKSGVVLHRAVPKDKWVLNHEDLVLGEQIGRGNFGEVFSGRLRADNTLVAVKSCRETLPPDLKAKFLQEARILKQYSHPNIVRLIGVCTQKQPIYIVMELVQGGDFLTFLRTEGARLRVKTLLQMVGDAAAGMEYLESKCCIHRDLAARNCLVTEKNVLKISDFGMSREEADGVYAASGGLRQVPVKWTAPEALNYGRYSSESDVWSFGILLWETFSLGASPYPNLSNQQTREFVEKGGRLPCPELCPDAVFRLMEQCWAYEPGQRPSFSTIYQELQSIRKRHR

AncSZ = experiment: as above
Hck = Hck (UniProt P08631); experiment: as above
Fer (mouse) = experiment: as above
MERTK = MERTK (UniProt Q12866); experiment: as above
MERTK, sequence (Q12866 whole entry, looked up): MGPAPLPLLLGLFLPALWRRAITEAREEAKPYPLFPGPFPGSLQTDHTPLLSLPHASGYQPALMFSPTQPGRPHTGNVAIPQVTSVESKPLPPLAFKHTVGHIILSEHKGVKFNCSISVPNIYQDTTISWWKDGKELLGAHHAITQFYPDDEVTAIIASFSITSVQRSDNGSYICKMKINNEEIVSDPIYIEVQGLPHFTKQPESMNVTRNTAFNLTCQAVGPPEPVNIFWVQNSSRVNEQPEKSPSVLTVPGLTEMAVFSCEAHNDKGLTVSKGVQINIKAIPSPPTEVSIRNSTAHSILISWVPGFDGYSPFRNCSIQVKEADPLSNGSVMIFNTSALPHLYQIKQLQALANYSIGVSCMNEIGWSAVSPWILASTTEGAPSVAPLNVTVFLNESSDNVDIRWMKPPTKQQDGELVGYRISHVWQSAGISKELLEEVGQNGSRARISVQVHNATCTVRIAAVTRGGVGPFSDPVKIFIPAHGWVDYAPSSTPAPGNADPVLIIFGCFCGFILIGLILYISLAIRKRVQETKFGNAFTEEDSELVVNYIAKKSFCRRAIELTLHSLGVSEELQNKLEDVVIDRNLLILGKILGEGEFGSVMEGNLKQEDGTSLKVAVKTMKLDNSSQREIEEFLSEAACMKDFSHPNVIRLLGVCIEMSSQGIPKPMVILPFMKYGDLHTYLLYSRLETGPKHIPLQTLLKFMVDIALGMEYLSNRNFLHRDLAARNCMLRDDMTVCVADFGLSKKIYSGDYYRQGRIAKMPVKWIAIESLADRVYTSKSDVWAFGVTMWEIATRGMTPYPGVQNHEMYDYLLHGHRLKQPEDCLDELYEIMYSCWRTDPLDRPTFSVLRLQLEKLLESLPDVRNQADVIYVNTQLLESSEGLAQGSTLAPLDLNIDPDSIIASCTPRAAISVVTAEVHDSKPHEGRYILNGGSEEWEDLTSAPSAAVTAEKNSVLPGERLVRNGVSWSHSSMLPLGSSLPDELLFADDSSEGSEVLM

FGFR3 = FGFR3 (UniProt P22607); experiment: as above
EPHB2 = EPHB2 (UniProt P29323); experiment: as above
EPHB2, sequence (P29323 whole entry, looked up): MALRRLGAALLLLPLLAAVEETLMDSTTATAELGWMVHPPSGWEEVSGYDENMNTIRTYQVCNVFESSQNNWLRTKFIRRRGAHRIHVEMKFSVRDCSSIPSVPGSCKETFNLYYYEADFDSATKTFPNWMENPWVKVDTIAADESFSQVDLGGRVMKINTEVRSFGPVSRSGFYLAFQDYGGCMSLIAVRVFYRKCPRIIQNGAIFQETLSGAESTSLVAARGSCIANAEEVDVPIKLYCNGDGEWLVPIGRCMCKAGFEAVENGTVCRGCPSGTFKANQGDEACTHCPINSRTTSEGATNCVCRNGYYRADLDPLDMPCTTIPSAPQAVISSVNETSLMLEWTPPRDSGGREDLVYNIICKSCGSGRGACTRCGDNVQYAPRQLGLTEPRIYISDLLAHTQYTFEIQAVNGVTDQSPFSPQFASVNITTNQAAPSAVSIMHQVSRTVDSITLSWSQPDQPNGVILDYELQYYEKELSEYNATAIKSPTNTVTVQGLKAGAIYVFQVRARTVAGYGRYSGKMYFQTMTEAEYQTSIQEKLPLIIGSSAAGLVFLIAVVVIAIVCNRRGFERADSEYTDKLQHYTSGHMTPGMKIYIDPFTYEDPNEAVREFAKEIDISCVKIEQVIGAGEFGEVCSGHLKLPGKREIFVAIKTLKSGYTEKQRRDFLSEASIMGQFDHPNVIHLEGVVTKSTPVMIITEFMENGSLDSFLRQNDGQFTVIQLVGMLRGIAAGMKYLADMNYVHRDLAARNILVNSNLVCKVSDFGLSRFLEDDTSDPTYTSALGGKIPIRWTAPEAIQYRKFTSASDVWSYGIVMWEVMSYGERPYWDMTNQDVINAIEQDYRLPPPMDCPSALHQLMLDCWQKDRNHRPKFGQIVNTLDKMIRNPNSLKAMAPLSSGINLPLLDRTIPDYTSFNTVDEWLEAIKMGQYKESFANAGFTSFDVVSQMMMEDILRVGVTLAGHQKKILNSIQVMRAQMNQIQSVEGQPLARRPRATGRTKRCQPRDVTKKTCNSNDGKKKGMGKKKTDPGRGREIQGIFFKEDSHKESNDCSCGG

Fyn = Fyn (UniProt P06241); experiment: as above
Grb2 SH2 = Grb2 SH2 (UniProt P62993); experiment: SH2 binding enrichment of the phosphorylated peptide, bacterial display (enrichment ratio); higher = better substrate or ligand; peptides without Tyr show the background
Grb2 SH2, sequence (P62993 whole entry, looked up): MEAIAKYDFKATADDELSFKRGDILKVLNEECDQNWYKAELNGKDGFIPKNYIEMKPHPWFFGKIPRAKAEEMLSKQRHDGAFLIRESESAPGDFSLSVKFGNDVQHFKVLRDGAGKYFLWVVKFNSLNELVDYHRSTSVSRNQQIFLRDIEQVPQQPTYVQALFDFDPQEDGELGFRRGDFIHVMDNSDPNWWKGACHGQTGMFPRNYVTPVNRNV

SHP2-C SH2 = experiment: as above
c-Src SH2 = experiment: as above
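For SH2 binding enrichment of the phosphorylated peptide, bacterial display in this document: peptide library displayed on the E. coli surface as eCPX fusions, selected cells deep-sequenced, score is each peptide's frequency after selection divided by its frequency in the input.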
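For phosphorylation enrichment, bacterial display in this document: 11-residue human phosphosite peptides and single-mutation variants displayed on the E. coli surface, counted by deep sequencing, each peptide's frequency after selection divided by its frequency in the unselected input library; frequency after pTyr selection over input frequency; kinase dosed for 20-30% of maximal phosphorylation in three min.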

FGFR1, sequence (P11362 whole entry, looked up): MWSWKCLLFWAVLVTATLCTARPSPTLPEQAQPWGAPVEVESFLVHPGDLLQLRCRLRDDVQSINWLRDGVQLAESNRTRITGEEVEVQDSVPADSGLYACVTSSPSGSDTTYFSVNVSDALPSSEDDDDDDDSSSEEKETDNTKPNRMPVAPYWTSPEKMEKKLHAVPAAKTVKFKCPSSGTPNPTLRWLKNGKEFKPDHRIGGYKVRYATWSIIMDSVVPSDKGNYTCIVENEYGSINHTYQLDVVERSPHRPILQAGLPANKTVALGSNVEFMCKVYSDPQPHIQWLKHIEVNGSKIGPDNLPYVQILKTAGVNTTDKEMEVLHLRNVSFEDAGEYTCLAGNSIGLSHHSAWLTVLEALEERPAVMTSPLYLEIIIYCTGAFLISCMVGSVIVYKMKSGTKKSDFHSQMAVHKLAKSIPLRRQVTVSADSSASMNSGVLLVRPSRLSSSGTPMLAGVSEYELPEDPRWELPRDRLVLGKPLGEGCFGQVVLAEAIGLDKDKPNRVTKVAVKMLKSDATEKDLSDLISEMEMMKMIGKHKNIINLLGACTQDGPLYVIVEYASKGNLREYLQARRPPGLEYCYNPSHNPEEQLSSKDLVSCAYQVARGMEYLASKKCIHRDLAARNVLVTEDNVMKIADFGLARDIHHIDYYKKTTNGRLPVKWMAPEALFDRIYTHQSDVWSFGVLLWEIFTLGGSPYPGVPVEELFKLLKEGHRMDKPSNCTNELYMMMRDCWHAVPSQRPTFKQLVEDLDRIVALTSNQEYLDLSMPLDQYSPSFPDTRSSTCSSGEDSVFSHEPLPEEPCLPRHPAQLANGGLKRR
EPHB1, sequence (P54762 whole entry, looked up): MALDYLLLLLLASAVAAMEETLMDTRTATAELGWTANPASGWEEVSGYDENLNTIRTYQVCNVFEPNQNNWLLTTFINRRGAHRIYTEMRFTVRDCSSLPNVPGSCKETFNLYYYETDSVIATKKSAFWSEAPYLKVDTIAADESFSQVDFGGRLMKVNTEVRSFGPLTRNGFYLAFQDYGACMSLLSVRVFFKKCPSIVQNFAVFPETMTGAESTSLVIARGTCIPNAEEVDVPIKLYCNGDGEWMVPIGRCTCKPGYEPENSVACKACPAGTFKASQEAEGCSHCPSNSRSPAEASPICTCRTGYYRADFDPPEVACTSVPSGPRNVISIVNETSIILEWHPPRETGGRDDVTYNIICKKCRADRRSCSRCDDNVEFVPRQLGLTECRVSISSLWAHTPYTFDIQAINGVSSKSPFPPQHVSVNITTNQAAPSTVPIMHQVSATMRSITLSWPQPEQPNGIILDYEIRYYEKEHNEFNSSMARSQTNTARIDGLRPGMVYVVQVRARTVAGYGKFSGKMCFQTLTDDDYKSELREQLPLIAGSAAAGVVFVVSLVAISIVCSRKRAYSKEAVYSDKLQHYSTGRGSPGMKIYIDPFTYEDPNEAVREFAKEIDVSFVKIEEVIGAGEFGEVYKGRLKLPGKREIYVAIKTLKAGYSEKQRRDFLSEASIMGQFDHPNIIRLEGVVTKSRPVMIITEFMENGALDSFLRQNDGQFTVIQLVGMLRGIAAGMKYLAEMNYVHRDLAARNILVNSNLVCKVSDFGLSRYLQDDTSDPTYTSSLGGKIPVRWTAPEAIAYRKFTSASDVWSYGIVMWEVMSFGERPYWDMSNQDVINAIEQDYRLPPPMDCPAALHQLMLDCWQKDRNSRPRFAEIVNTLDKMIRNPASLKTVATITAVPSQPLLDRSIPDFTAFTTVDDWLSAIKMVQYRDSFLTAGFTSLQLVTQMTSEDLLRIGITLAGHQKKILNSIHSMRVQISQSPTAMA

Row | Sequence | phosphorylation enrichment (FGFR1) | phosphorylation enrichment (c-Abl (mouse)) | phosphorylation enrichment (EPHB1) | phosphorylation enrichment (Jak2) | phosphorylation enrichment (c-Src) | phosphorylation enrichment (Fes) | phosphorylation enrichment (AncSZ) | phosphorylation enrichment (Hck) | phosphorylation enrichment (Fer (mouse)) | phosphorylation enrichment (MERTK) | phosphorylation enrichment (FGFR3) | phosphorylation enrichment (EPHB2) | phosphorylation enrichment (Fyn) | SH2 binding enrichment (Grb2 SH2) | SH2 binding enrichment (SHP2-C SH2) | SH2 binding enrichment (c-Src SH2)
1 | CNRADYSKLAS [GNE_Y22_P27S] | 0.367 | 0.453 | 0.393 | 0.621 | 0.369 | 0.95 | 1.04 | 0.376 | 0.398 | 0.441 | 0.47 | 0.572 | 0.377 | 0.874 | 0.625 | 0.938
2 | NMSRIYSTAKV [ACE_Y151] | 0.451 | 0.545 | 0.342 | 0.535 | 0.477 | 0.563 | 0.573 | 0.528 | 0.416 | 0.417 | 0.448 | 0.493 | 0.477 | 0.901 | 1.25 | 0.545
3 | PLGVLYKVKVY [PTS_Y128_V124L] | 0.415 | 0.876 | 0.674 | 1.19 | 0.36 | 1.4 | 1.61 | 0.465 | 0.511 | 0.318 | 0.82 | 0.626 | 0.339 | 0.828 | 0.817 | 0.484
4 | TSFSGYRFHRH [NKAPL_Y94_YF] | 0.44 | 0.601 | 0.429 | 0.546 | 0.579 | 0.788 | 0.558 | 0.515 | 0.384 | 0.452 | 0.677 | 0.471 | 0.472 | 1.28 | 1.01 | 0.942
5 | GREEFYVHYVG [KAT8_Y90] | 0.711 | 0.788 | 0.583 | 1.02 | 0.486 | 1.16 | 1.16 | 0.563 | 0.428 | 0.422 | 1.02 | 0.67 | 0.518 | 0.81 | 2.83 | 0.644
6 | KWRGQYDVAIR [BTK_Y425_K430R] | 0.426 | 0.539 | 0.498 | 0.461 | 0.389 | 0.698 | 0.96 | 0.451 | 0.512 | 0.341 | 0.533 | 0.454 | 0.446 | 1.35 | 1.57 | 1.74
7 | PGPPGYCDSSQ [COL12A1_Y3043] | 0.461 | 0.707 | 0.914 | 1.08 | 0.594 | 1.41 | 1.03 | 0.639 | 0.77 | 0.505 | 0.941 | 0.492 | 0.643 | 0.979 | 0.692 | 0.603
8 | DLTQDYEEWKR [ORC6_Y232] | 0.509 | 0.84 | 0.796 | 1.28 | 0.696 | 1.47 | 1.8 | 0.845 | 0.715 | 0.526 | 0.862 | 0.882 | 0.707 | 0.982 | 0.647 | 0.55
9 | KLVDVYVNDAF [PGK1_Y161_G158V] | 0.635 | 0.387 | 0.575 | 0.661 | 0.435 | 0.81 | 0.895 | 0.554 | 0.496 | 0.425 | 0.626 | 0.5 | 0.574 | 1.44 | 0.832 | 0.764
10 | IFHENYNAGTF [CFI_Y421_YF] | 0.473 | 0.578 | 0.36 | 0.615 | 0.456 | 0.647 | 0.612 | 0.417 | 0.435 | 0.415 | 0.465 | 0.388 | 0.461 | 0.869 | 0.684 | 0.479
11 | LPKDLYLISQM [LARP4_Y141_S137P] | 1.15 | 1.2 | 0.784 | 1.46 | 0.788 | 2.13 | 2.15 | 0.891 | 0.646 | 0.785 | 1.55 | 0.757 | 0.69 | 1.02 | 0.795 | 0.406
12 | KLSHLYQDHMQ [WNT5A_Y86_C83S] | 0.439 | 0.616 | 0.462 | 0.712 | 0.406 | 0.844 | 0.794 | 0.455 | 0.647 | 0.437 | 0.703 | 0.579 | 0.442 | 0.832 | 0.772 | 0.573
13 | PVQAAYPKVVA [HBB_Y131_Q132P] | 0.322 | 0.501 | 0.902 | 0.828 | 1 | 0.804 | 0.706 | 0.335 | 0.261 | 0.504 | 0.503 | 0.542 | 0.42 | 0.904 | 0.697 | 0.386
14 | DAVCYYRMENA [NPHS2_Y195_I192V] | 7.53 | 0.956 | 0.622 | 6.76 | 3.44 | 1.1 | 1.9 | 1.37 | 0.704 | 1.82 | 6.2 | 0.588 | 1.34 | 0.676 | 0.648 | 0.548
15 | ARAHKYHGGGG [HBB_Y146_L142R] | 0.324 | 0.474 | 0.246 | 0.379 | 0.312 | 0.443 | 0.384 | 0.302 | 0.28 | 0.276 | 0.371 | 0.273 | 0.312 | 1.39 | 0.799 | 0.902
16 | IDPYTYTPFGS [CYP3A4_Y432_I431T] | 3.24 | 0.63 | 0.563 | 0.907 | 6.82 | 0.914 | 1.3 | 3.36 | 0.698 | 1.16 | 2.25 | 0.6 | 7.04 | 0.92 | 0.885 | 1.17
17 | NPQKSCFIRLY [WAS_Y83_Y83C] | 0.441 | 0.783 | 0.597 | 1.07 | 0.403 | 1.14 | 1.02 | 0.494 | 0.481 | 0.396 | 0.769 | 0.503 | 0.504 | 0.783 | 0.654 | 0.533

Row | Sequence | phosphorylation enrichment (FGFR1) | phosphorylation enrichment (c-Abl (mouse)) | phosphorylation enrichment (EPHB1) | phosphorylation enrichment (Jak2) | phosphorylation enrichment (c-Src) | phosphorylation enrichment (Fes) | phosphorylation enrichment (AncSZ) | phosphorylation enrichment (Hck) | phosphorylation enrichment (Fer (mouse)) | phosphorylation enrichment (MERTK) | phosphorylation enrichment (FGFR3) | phosphorylation enrichment (EPHB2) | phosphorylation enrichment (Fyn) | SH2 binding enrichment (Grb2 SH2) | SH2 binding enrichment (SHP2-C SH2) | SH2 binding enrichment (c-Src SH2)
18 | WFQTKYEELQI [KRT6B_Y360_YF] | 0.428 | 0.651 | 0.446 | 0.987 | 0.398 | 0.981 | 0.839 | 0.417 | 0.46 | 0.403 | 0.633 | 0.488 | 0.38 | 0.953 | 1.12 | 8.63
19 | EIIPFYGMSSF [FNDC3B_Y175_T179S_YF] | 0.497 | 0.865 | 0.764 | 0.772 | 0.822 | 0.995 | 1.06 | 1.15 | 1.46 | 1.54 | 0.786 | 0.916 | 1.06 | 0.652 | 0.592 | 4.4
20 | KSFDMYSGDVM [FAM3D_Y122_A118S] | 0.654 | 0.609 | 1.6 | 0.698 | 1.1 | 0.856 | 0.998 | 1.13 | 0.589 | 0.914 | 0.667 | 1.22 | 1.06 | 0.803 | 0.674 | 0.613
21 | FRDALYKFMVD [PHEX_Y250_YF] | 0.626 | 0.834 | 0.768 | 1.23 | 0.582 | 1.37 | 1.15 | 0.559 | 0.676 | 0.763 | 0.962 | 0.602 | 0.525 | 0.897 | 0.956 | 0.77
22 | LLLLFYVVRFC [MPZ_Y177_YF] | 1.47 | 0.863 | 0.741 | 0.664 | 0.726 | 1.21 | 0.918 | 0.472 | 1.14 | 0.805 | 0.742 | 0.443 | 0.637 | 1.69 | 1.9 | 1.14
23 | QVKEQYQDVPM [PKP2_Y659_K654Q] | 0.835 | 2.19 | 0.555 | 1.12 | 0.573 | 1.98 | 1.15 | 0.701 | 0.86 | 0.565 | 0.914 | 0.762 | 0.65 | 0.945 | 0.752 | 0.883
24 | DKATEYSQYMR [MAX_Y70_I71S] | 0.531 | 0.677 | 0.45 | 0.636 | 0.745 | 0.864 | 0.87 | 0.556 | 0.499 | 0.473 | 0.541 | 0.525 | 0.571 | 0.643 | 0.82 | 0.609
25 | LKKKQYTSIHH [APP_Y728] | 0.631 | 1.39 | 0.739 | 0.949 | 1.03 | 0.787 | 0.631 | 0.869 | 0.688 | 0.508 | 0.903 | 0.605 | 0.92 | 1.53 | 2.63 | 1.89
26 | IEPVIYVVQRR [ANOS1_Y217] | 0.368 | 0.58 | 0.209 | 1.1 | 0.356 | 1.23 | 1.37 | 0.315 | 0.271 | 0.531 | 0.475 | 0.486 | 0.304 | 0.512 | 0.236 | 0.255
27 | PEPTGYSAELS [EZR_Y499_A494P] | 0.502 | 0.962 | 0.573 | 0.871 | 0.461 | 0.943 | 1.02 | 0.419 | 0.456 | 0.567 | 0.762 | 0.851 | 0.57 | 0.87 | 0.63 | 0.461
28 | KMATAYIRSMS [BCO1_Y264_R267S] | 0.397 | 0.516 | 0.409 | 0.518 | 0.385 | 0.6 | 0.564 | 0.388 | 0.337 | 0.396 | 0.369 | 0.374 | 0.417 | 1.08 | 0.59 | 0.464
29 | IPGGIYDADLN [CST4_Y35] | 0.746 | 1.14 | 0.582 | 1.4 | 1.62 | 1.32 | 1.24 | 1.65 | 0.611 | 0.787 | 0.836 | 0.649 | 1.76 | 0.991 | 0.876 | 0.823
30 | CSGNCYLDIRP [FBN1_Y1535_R1530C] | 0.646 | 0.509 | 0.452 | 0.514 | 0.609 | 0.646 | 0.591 | 0.504 | 0.404 | 0.49 | 0.532 | 0.442 | 0.446 | 1.19 | 1.07 | 1.37
31 | FSQETYYRVSN [ABCD1_Y180_Q178E] | 4.96 | 1.03 | 4.43 | 6.03 | 4.41 | 0.812 | 1.26 | 4.2 | 0.492 | 3.78 | 3.85 | 2.73 | 1.77 | 0.841 | 0.628 | 0.654
32 | ADEQIYWQIAA [CSKtide_2014] | 7.87 | 5.09 | 2.64 | 1.58 | 4.66 | 1.56 | 2.59 | 4.33 | 2.25 | 3.12 | 6.65 | 1.37 | 5.62 | 0.649 | 0.515 | 0.439
33 | TSSAGYRRTPS [ABI1_Y333_G331A] | 0.499 | 0.576 | 0.42 | 0.476 | 0.444 | 0.594 | 0.565 | 0.446 | 0.36 | 0.392 | 0.491 | 0.497 | 0.484 | 1.03 | 0.405 | 0.45
